Target: T1, CesT (residues 1-156), 6xHis-tagged, wild type (enteropathogenic E. coli (EPEC) O127:H6 …, UniProt P21244 1-156)
T1 construct: source: E. coli BL21(DE3), purified (Ni-NTA, gel filtration); not shown: His6, N-terminal, kept
Test: SPR
Conditions: both partners purified

T1 sequence (P21244 whole entry, the tested form may be a part): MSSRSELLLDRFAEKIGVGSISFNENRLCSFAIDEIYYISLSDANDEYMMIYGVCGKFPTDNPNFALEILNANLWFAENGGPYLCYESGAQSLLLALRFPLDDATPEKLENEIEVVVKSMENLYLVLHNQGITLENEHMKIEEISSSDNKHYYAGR

B1: CsrA (residues 1-61), GST tag removed (natural protein)
chain: not shown
notes: also called WT CsrA; native CsrA
- KD of the first ligand binding site in CsrA (Bivalent-Analyte model): ~148 nM
